# Results from the supplement of paper PMC5998384.
# Legend:
# HeLa Kyoto [1] = experiment: solubility change mitosis vs G1/S (difference of NP-40 vs SDS log2 ratios) (log2 ratio difference); higher = more soluble in mitosis
# HeLa Kyoto [2] = experiment: thermal stability score vs G1/S (z-score of summed log2 fold changes over temperatures); higher = more thermally stable than in G1/S
# HeLa Kyoto [3] = experiment: melting temperature (median over replicates), in situ; higher = more thermally stable
# [4] = cell cycle stage: early G1 (4.5 h after nocodazole release)
# 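For melting temperature (median over replicates), in situ in this document: HeLa Kyoto cells synchronized by double thymidine or nocodazole block, proteins quantified by TMT10plex mass spectrometry, three independent biological replicates.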
# 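For solubility change mitosis vs G1/S (difference of NP-40 vs SDS log2 ratios) in this document: synchronized HeLa Kyoto cells (double thymidine block for G1/S, nocodazole release for mitosis), protein amounts in NP-40 versus SDS lysates quantified by mass spectrometry, three biological replicates.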
# 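For thermal stability score vs G1/S (z-score of summed log2 fold changes over temperatures) in this document: synchronized HeLa Kyoto cells, proteins quantified by TMT10plex mass spectrometry, three biological replicates, mitosis taken 0.5 h after nocodazole release, G1/S directly after double thymidine block.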
# Sequence of AGRN (chain, as listed by the source): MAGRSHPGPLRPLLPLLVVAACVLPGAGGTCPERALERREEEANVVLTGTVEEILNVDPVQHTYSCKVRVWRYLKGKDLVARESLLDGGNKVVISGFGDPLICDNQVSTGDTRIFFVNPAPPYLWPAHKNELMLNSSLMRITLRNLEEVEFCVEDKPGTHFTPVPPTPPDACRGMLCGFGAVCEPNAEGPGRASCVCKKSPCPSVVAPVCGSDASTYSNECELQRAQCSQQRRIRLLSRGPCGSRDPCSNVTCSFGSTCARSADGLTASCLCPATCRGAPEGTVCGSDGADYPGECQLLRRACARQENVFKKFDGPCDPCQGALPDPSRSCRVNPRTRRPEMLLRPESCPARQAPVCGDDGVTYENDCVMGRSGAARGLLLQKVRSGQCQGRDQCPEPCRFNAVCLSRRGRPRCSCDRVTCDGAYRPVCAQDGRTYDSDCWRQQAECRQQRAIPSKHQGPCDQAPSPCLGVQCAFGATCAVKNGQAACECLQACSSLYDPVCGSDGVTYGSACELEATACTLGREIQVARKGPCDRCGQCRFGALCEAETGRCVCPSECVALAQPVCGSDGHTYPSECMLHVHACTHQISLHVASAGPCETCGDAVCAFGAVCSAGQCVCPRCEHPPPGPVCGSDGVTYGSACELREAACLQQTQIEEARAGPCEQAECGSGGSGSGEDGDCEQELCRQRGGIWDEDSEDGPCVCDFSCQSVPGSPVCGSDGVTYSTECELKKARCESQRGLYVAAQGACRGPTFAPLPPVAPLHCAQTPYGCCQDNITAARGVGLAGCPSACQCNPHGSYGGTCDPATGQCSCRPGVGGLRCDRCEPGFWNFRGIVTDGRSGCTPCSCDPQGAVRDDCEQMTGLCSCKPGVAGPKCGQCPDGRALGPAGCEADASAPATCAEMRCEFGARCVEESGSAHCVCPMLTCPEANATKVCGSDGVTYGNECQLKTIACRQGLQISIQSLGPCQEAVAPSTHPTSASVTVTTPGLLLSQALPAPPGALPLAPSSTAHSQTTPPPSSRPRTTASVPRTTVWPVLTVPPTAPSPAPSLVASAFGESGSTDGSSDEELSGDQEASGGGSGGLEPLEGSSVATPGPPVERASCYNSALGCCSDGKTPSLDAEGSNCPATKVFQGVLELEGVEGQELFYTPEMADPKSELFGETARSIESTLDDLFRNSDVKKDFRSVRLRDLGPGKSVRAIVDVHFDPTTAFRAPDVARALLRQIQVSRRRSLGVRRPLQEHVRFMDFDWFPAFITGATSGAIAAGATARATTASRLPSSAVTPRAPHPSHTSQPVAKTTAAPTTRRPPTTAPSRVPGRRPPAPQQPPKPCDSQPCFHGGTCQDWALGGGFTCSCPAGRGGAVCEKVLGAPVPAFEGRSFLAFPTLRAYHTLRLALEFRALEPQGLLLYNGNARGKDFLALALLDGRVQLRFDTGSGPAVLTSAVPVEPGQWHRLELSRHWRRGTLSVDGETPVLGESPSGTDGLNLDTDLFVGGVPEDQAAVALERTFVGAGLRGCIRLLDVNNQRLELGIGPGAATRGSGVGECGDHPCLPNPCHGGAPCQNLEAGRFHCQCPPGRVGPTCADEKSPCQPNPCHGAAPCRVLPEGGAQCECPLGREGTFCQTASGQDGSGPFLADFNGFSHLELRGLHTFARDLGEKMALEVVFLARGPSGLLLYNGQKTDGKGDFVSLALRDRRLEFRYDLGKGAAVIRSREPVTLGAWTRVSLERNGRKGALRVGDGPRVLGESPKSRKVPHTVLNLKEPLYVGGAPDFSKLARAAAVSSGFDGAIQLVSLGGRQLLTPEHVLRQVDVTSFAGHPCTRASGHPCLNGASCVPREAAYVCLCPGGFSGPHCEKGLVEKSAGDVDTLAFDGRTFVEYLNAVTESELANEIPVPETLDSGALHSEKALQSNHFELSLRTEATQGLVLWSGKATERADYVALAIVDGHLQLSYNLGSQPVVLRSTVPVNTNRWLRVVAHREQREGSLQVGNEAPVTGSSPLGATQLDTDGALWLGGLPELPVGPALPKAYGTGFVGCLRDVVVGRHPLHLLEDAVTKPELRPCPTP
Substance,solubility change mitosis (log2) (HeLa Kyoto [1]),other results
SNX27,-0.11,–
NCK1,-0.221,–
RPL4,0.805,–
MYRTKVGLKDRQQLYKLIISQLLYDGYISIANGLINEIKPQSVCAPSEQLLHLIKLGMENDDTAVQYAIGRSDTVAPGTGIDLEFDADVQTMSPEASEYETCYVTSHKGPCRVATYSRDGQLIATGSADASIKILDTERMLAKSAMPIEVMMNETAQQNMENHPVIRTLYDHVDEVTCLAFHPTEQILASGSRDYTLKLFDYSKPSAKRAFKYIQEAEMLRSISFHPSGDFILVGTQHPTLRLYDINTFQCFVSCNPQDQHTDAICSVNYNSSANMYVTGSKDGCIKLWDGVSNRCITTFEKAHDGAEVCSAIFSKNSKYILSSGKDSVAKLWEISTGRTLVRYTGAGLSGRQVHRTQAVFNHTEDYVLLPDERTISLCCWDSRTAERRNLLSLGHNNIVRCIVHSPTNPGFMTCSDDFRARFWYRRSTTD [CSTF1],-0.043,thermal stability score (HeLa Kyoto [2]; [4]): -1.59; thermal stability score (HeLa Kyoto [2]; cell cycle stage: mitosis): -2.67
RPS21,0.45,–
RPL27,0.573,–
LRPPRC,-0.118,–
MRPL47,0.0261,–
GADD45GIP1,0.258,–
COLGALT1,0.0451,–
DNMT3B,0.67,–
POLR2E,0.311,–
MRPS5,0.017,–
DPP7,0.00739,–
AJUBA,-0.0418,–
MEAF6,0.685,–
MRPL40,0.188,–
AK2,0.09,–
IFI30,0.347,–
CNOT11,-0.0916,–
CHAF1B,0.105,–
MRPL46,0.212,–
MRPS18B,0.111,–
MRPL35,0.149,–
RPL13,0.759,–
FNTA,-0.132,–
VPS35,-0.178,–

Substance,solubility change mitosis (log2) (HeLa Kyoto [1]),other results
ACTA1,-0.193,–
DPYSL2,-0.147,–
MRPS9,-0.0743,–
RPL35A,0.707,–
NCKIPSD,-0.148,–
MGLTISSLFSRLFGKKQMRILMVGLDAAGKTTILYKLKLGEIVTTIPTIGFNVETVEYKNICFTVWDVGGQDRIRPLWKHYFQNTQGLIFVVDSNDRERIQEVADELQKMLLVDELRDAVLLLFANKQDLPNAMAISEMTDKLGLQSLRNRTWYVQATCATQGTGLYEGLDWLSNELSKR [ARF4],-0.374,thermal stability score (HeLa Kyoto [2]; [4]): 4.99; thermal stability score (HeLa Kyoto [2]; cell cycle stage: mitosis): 6.18
RPS4X,0.489,–
LARP1,0.306,–
POLR2B,0.175,–
MRPL3,-0.0054,–
RPS10,0.59,–
MRPL18,0.126,–
HPCAL1,-0.0209,–
TMEM263,0.0364,–
MRPL53,0.25,–
PTCD3,-0.182,–
TACO1,0.0266,–
MAFIRKKQQEQQLQLYSKERFSLLLLNLEEYYFEQHRANHILHKGSHHERKIRGSLKICSKSVIFEPDSISQPIIKIPLRDCIKIGKHGENGANRHFTKAKSGGISLIFSQVYFIKEHNVVAPYKIERGKMEYVFELDVPGKVEDVVETLLQLHRASCLDKLGDQTAMITAILQSRLARTSFDKNRFQNISEKLHMECKAEMVTPLVTNPGHVCITDTNLYFQPLNGYPKPVVQITLQDVRRIYKRRHGLMPLGLEVFCTEDDLCSDIYLKFYEPQDRDDLYFYIATYLEHHVAEHTAESYMLQWQRGHLSNYQYLLHLNNLADRSCNDLSQYPVFPWIIHDYSSSELDLSNPGTFRDLSKPVGALNKERLERLLTRYQEMPEPKFMYGSHYSSPGYVLFYLVRIAPEYMLCLQNGRFDNADRMFNSIAETWKNCLDGATDFKELIPEFYGDDVSFLVNSLKLDLGKRQGGQMVDDVELPPWASSPEDFLQKSKDALESNYVSEHLHEWIDLIFGYKQKGSDAVGAHNVFHPLTYEGGVDLNSIQDPDEKVAMLTQILEFGQTPKQLFVTPHPRRITPKFKSLSQTSSYNASMADSPGEESFEDLTEESKTLAWNNITKLQLHEHYKIHKEAVTGITVSRNGSSVFTTSQDSTLKMFSKESKMLQRSISFSNMALSSCLLLPGDATVITSSWDNNVYFYSIAFGRRQDTLMGHDDAVSKICWHDNRLYSASWDSTVKVWSGVPAEMPGTKRHHFDLLAELEHDVSVDTISLNAASTLLVSGTKEGTVNIWDLTTATLMHQIPCHSGIVCDTAFSPDSRHVLSTGTDGCLNVIDVQTGMLISSMTSDEPQRCFVWDGNSVLSGSQSGELLVWDLLGAKISERIQGHTGAVTCIWMNEQCSSIITGGEDRQIIFWKLQY [NSMAF],-0.221,thermal stability score (HeLa Kyoto [2]; [4]): -0.603; thermal stability score (HeLa Kyoto [2]; cell cycle stage: mitosis): 0.514
AGRN,-0.0384,thermal stability score (HeLa Kyoto [2]; [4]): 3.71; thermal stability score (HeLa Kyoto [2]; cell cycle stage: mitosis): 4.6
RPL29,1.68,–
EMG1,0.19,–
TUFM,-0.0187,–
RAC1,-0.0656,–
MALSU1,-0.0468,–
RPL37,1.29,–
MRPL4,-0.11,–
RPL30,0.776,–

Substance,solubility change mitosis (log2) (HeLa Kyoto [1]),other results
S100A6,0.893,–
MRPS14,0.165,–
MAAACGPGAAGYCLLLGLHLFLLTAGPALGWNDPDRMLLRDVKALTLHYDRYTTSRRLDPIPQLKCVGGTAGCDSYTPKVIQCQNKGWDGYDVQWECKTDLDIAYKFGKTVVSCEGYESSEDQYVLRGSCGLEYNLDYTELGLQKLKESGKQHGFASFSDYYYKWSSADSCNMSGLITIVVLLGIAFVVYKLFLSDGQYSPPPYSEYPPFSHRYQRFTNSAGPPPPGFKSEFTGPQNTGHGATSGFGSAFTGQQGYENSGPGFWTGLGTGGILGYLFGSNRAATPFSDSWYYPSYPPSYPGTWNRAYSPLHGGSGSYSVCSNSDTKTRTASGYGGTRRR [SARAF],–,thermal stability score (HeLa Kyoto [2]; [4]): -0.125; thermal stability score (HeLa Kyoto [2]; cell cycle stage: mitosis): 0.434; melting temperature (HeLa Kyoto [3]; cell cycle stage: G1/S): 52 °C; melting temperature (HeLa Kyoto [3]; cell cycle stage: mitosis): 53.3 °C
NT5C3A,-0.0945,–
GORASP2,-0.317,–
MAASGPGCRSWCLCPEVPSATFFTALLSLLVSGPRLFLLQQPLAPSGLTLKSEALRNWQVYRLVTYIFVYENPISLLCGAIIIWRFAGNFERTVGTVRHCFFTVIFAIFSAIIFLSFEAVSSLSKLGEVEDARGFTPVAFAMLGVTTVRSRMRRALVFGMVVPSVLVPWLLLGASWLIPQTSFLSNVCGLSIGLAYGLTYCYSIDLSERVALKLDQTFPFSLMRRISVFKYVSGSSAERRAAQSRKLNPVPGSYPTQSCHPHLSPSHPVSQTQHASGQKLASWPSCTPGHMPTLPPYQPASGLCYVQNHFGPNPTSSSVYPASAGTSLGIQPPTPVNSPGTVYSGALGTPGAAGSKESSRVPMP [RHBDD2],–,thermal stability score (HeLa Kyoto [2]; [4]): -1.05; thermal stability score (HeLa Kyoto [2]; cell cycle stage: mitosis): -1.48; melting temperature (HeLa Kyoto [3]; cell cycle stage: mitosis): 52.5 °C
NUDT1,-0.22,–
SLAIN2,-0.187,–
RPS5,0.452,–
MWRWIRQQLGFDPPHQSDTRTIYVANRFPQNGLYTPQKFIDNRIISSKYTVWNFVPKNLFEQFRRVANFYFLIIFLVQLMIDTPTSPVTSGLPLFFVITVTAIKQGYEDWLRHNSDNEVNGAPVYVVRSGGLVKTRSKNIRVGDIVRIAKDEIFPADLVLLSSDRLDGSCHVTTASLDGETNLKTHVAVPETALLQTVANLDTLVAVIECQQPEADLYRFMGRMIITQQMEEIVRPLGPESLLLRGARLKNTKEIFGVAVYTGMETKMALNYKSKSQKRSAVEKSMNTFLIIYLVILISEAVISTILKYTWQAEEKWDEPWYNQKTEHQRNSSKILRFISDFLAFLVLYNFIIPISLYVTVEMQKFLGSFFIGWDLDLYHEESDQKAQVNTSDLNEELGQVEYVFTDKTGTLTENEMQFRECSINGMKYQEINGRLVPEGPTPDSSEGNLSYLSSLSHLNNLSHLTTSSSFRTSPENETELIKEHDLFFKAVSLCHTVQISNVQTDCTGDGPWQSNLAPSQLEYYASSPDEKALVEAAARIGIVFIGNSEETMEVKTLGKLERYKLLHILEFDSDRRRMSVIVQAPSGEKLLFAKGAESSILPKCIGGEIEKTRIHVDEFALKGLRTLCIAYRKFTSKEYEEIDKRIFEARTALQQREEKLAAVFQFIEKDLILLGATAVEDRLQDKVRETIEALRMAGIKVWVLTGDKHETAVSVSLSCGHFHRTMNILELINQKSDSECAEQLRQLARRITEDHVIQHGLVVDGTSLSLALREHEKLFMEVCRNCSAVLCCRMAPLQKAKVIRLIKISPEKPITLAVGDGANDVSMIQEAHVGIGIMGKEGRQAARNSDYAIARFKFLSKLLFVHGHFYYIRIATLVQYFFYKNVCFITPQFLYQFYCLFSQQTLYDSVYLTLYNICFTSLPILIYSLLEQHVDPHVLQNKPTLYRDISKNRLLSIKTFLYWTILGFSHAFIFFFGSYLLIGKDTSLLGNGQMFGNWTFGTLVFTVMVITVTVKMALETHFWTWINHLVTWGSIIFYFVFSLFYGGILWPFLGSQNMYFVFIQLLSSGSAWFAIILMVVTCLFLDIIKKVFDRHLHPTSTEKAQLTETNAGIKCLDSMCCFPEGEAACASVGRMLERVIGRCSPTHISRSWSASDPFYTNDRSILTLSTMDSSTC [ATP11B],–,thermal stability score (HeLa Kyoto [2]; [4]): -2.25; thermal stability score (HeLa Kyoto [2]; cell cycle stage: mitosis): -0.924; melting temperature (HeLa Kyoto [3]; cell cycle stage: G1/S): 57.4 °C; melting temperature (HeLa Kyoto [3]; cell cycle stage: mitosis): 55.5 °C
SARS,-0.0633,–
DYRK1A,0.0078,–
POLB,-0.0195,–
RPS3A,0.538,–
GAA,-0.231,–
MGKVWKQQMYPQYATYYYPQYLQAKQSLVPAHPMAPPSPSTTSSNNNSSSSSNSGWDQLSKTNLYIRGLPPHTTDQDLVKLCQPYGKIVSTKAILDKTTNKCKGYGFVDFDSPAAAQKAVSALKASGVQAQMAKQQEQDPTNLYISNLPLSMDEQELENMLKPFGQVISTRILRDSSGTSRGVGFARMESTEKCEAVIGHFNGKFIKTPPGVSAPTEPLLCKFADGGQKKRQNPNKYIPNGRPWHREGEVRLAGMTLTYDPTTAAIQNGFYPSPYSIATNRMITQTSITPYIASPVSAYQVQSPSWMQPQPYILQHPGAVLTPSMEHTMSLQPASMISPLAQQMSHLSLGSTGTYMPATSAMQGAYLPQYAHMQTTAVPVEEASGQQQVAVETSNDHSPYTFQPNK [RBMS1],–,thermal stability score (HeLa Kyoto [2]; [4]): -0.758; thermal stability score (HeLa Kyoto [2]; cell cycle stage: mitosis): -1.24; melting temperature (HeLa Kyoto [3]; cell cycle stage: G1/S): 53.4 °C; melting temperature (HeLa Kyoto [3]; cell cycle stage: mitosis): 52.4 °C
MRPS25,0.166,–
RPL23,0.476,–
HSPG2,-0.021,–
BCKDK,-0.0559,–
MRPS30,-0.14,–
RPL32,0.91,–
MTSALENYINRTVAVITSDGRMIVGTLKGFDQTINLILDESHERVFSSSQGVEQVVLGLYIVRGDNVAVIGEIDEETDSALDLGNIRAEPLNSVAH [LSM8],–,thermal stability score (HeLa Kyoto [2]; [4]): -1.46; thermal stability score (HeLa Kyoto [2]; cell cycle stage: mitosis): -3.54; melting temperature (HeLa Kyoto [3]; cell cycle stage: G1/S): 57.1 °C; melting temperature (HeLa Kyoto [3]; cell cycle stage: mitosis): 57.5 °C
EI24,-0.07,–
ETF1,-0.146,–
